Measured values reported in patent US20140377215A1.

Experiments:
Assay in all cases: 1H-15N HSQC NMR titration of 15N-labeled CBD with mini-collagen
[1] = molecular target: [PROXYL-(POG)4POA(POG)5]3
[2] = molecular target: [PROXYL-(POG)6POA(POG)3]3
[3] = molecular target: [PROXYL-(POG)5POA(POG)4]3
[4] = molecular target: [PROXYL-(POG)3POA(POG)6]3

Measured: Kd

Chain of collagen-binding domain (CBD), s3b (Gly893-Lys1008) peptide derived from Clostridium histolyticum cl (Q9X721 1003-1118 limits assumed): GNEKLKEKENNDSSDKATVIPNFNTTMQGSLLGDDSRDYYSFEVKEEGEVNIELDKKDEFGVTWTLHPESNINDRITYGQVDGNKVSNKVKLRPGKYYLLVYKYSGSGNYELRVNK

collagen-binding domain (CBD), s3b (Gly893-Lys1008) peptide derived from Clostridium histolyticum cl (from UniProt Q9X721 1003-1118)
< 100 µM: all assays above
